Experimental data reported in publication PMC7367685, “Reconstitution reveals two paths of force transmission through the kinetochore” (eLife, 2020).

What was measured:
[1] = molecular target: Cse4-NCP: nucleosome core particle of K. lactis 6XHis-H2A, K. lactis 6XHis-H2B, S. cerevisiae Cse4 and K. lactis 6XHis-H4, wrapped in 601 DNA (Kluyveromyces lactis | S. cerevisiae) (UniProt P36012); assay: optical trap force-ramp rupture assay; same beads and free proteins (10 nM each) as the attachment assay; bead on a growing microtubule tip, 1 pN preload, then a ramp of 0.25 pN/s until detachment; median rupture force of the whole chain; not single-molecule conditions; room temperature
[2] = molecular target: Cse4-NCP: nucleosome core particle of K. lactis 6XHis-H2A, K. lactis 6XHis-H2B, S. cerevisiae Cse4 and K. lactis 6XHis-H4, wrapped in 601 DNA (Kluyveromyces lactis | S. cerevisiae) (UniProt P36012); assay: optical trap bead-microtubule attachment assay (self-assembly and microtubule binding); one His6-tagged subcomplex on anti-His5 polystyrene beads (10 nM on 3.5 pM beads), the other subcomplexes free at 10 nM each; the bead was brought to a single growing microtubule with the laser trap, and a bead whose contact did not persist with the laser off counted as a nonbinder; no external force; BRB80 growth buffer with 1 mM GTP, room temperature; in negative controls one subcomplex was omitted
[3] = molecular target: T1, Ndc80c (Ndc80, Nuf2, Spc24-Flag, Spc25) (S. cerevisiae, UniProt P40460 1-691; P33895 1-451; Q04477 1-213; P40014 1-221); assay: optical trap bead-microtubule attachment assay (self-assembly and microtubule binding); one His6-tagged subcomplex on anti-His5 polystyrene beads (10 nM on 3.5 pM beads), the other subcomplexes free at 10 nM each; the bead was brought to a single growing microtubule with the laser trap, and a bead whose contact did not persist with the laser off counted as a nonbinder; no external force; BRB80 growth buffer with 1 …; settings: both partners purified
T1 construct: Ndc80, S. cerevisiae; Nuf2, S. cerevisiae; Spc24, S. cerevisiae; Spc25, S. cerevisiae; also called Ndc80 complex; pJT048 with Ndc80/Nuf2; copies: + + +

[4] = molecular target: T1, Ndc80c (Ndc80, Nuf2, Spc24-Flag, Spc25); assay: optical trap force-ramp rupture assay; same beads and free proteins (10 nM each) as the attachment assay; bead on a growing microtubule tip, 1 pN preload, then a ramp of 0.25 pN/s until detachment; median rupture force of the whole chain; not single-molecule conditions; room temperature; settings: both partners purified

T1 sequence (P40460 whole entry, chain 1 of 4): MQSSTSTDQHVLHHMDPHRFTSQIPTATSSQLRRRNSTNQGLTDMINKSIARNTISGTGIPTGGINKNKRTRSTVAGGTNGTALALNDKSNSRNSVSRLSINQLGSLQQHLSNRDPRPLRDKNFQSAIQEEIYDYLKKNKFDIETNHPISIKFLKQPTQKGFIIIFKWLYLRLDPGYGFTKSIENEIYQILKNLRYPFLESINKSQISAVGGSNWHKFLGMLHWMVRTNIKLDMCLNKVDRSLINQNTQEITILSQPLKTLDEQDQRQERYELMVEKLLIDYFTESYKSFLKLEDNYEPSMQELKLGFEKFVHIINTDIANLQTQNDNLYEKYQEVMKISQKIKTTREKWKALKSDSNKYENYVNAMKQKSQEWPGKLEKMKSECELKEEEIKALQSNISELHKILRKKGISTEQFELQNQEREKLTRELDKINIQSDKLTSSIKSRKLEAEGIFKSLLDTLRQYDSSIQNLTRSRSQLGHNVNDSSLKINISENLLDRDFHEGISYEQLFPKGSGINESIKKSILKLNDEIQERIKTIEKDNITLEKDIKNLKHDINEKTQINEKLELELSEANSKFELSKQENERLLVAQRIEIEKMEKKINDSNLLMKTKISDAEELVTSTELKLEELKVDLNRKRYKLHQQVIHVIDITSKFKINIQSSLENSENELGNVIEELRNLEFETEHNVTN
T1 sequence (P33895 whole entry, chain 2 of 4): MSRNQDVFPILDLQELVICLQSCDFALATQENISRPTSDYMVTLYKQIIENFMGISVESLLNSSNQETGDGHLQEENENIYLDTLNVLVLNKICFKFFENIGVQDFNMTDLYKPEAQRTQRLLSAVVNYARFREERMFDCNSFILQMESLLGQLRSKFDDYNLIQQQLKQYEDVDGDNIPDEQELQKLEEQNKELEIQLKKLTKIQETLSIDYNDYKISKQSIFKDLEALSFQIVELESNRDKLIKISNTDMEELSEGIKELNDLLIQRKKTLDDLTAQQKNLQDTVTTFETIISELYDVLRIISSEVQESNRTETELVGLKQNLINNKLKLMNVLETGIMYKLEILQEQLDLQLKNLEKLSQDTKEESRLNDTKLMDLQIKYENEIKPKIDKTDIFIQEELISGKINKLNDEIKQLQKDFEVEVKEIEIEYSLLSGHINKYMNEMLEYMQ
T1 sequence (Q04477 whole entry, chain 3 of 4): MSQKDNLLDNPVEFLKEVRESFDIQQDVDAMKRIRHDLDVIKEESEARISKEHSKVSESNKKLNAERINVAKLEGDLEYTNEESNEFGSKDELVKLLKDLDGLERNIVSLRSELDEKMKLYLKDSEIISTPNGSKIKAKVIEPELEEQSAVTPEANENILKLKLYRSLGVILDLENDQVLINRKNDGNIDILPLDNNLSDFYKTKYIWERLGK
T1 sequence (P40014 whole entry, chain 4 of 4): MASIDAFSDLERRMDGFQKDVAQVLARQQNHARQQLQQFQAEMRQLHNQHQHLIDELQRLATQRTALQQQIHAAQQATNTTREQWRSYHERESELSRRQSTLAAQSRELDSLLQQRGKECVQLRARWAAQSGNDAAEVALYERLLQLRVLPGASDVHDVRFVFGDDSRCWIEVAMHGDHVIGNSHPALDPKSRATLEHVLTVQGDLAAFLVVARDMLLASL

“Mif2-linker-(27-392)MBP (from UniProt P35201 1-549) (natural protein)” gave a median rupture force of Cse4-NCP-based chains with both Mif2 and OA free (with 2D-MIND and Ndc80c) [1] of 4 pN, a median rupture force of the whole chain Cse4-NCP/Mif2/2D-MIND/Ndc80c [1] of 3.3 pN and a percent of beads that bound microtubules (Cse4-NCP beads with free Mif2, 2D-MIND and Ndc80c) [2] of 24%.

B1: MIND complex, wild type (Nsl1, FLAG-Dsn1, Mtw1, Nnf1) (complex, S. cerevisiae)
chain 1: MSQGQSKKLDVTVEQLRSIYHQFHDILEEKTDLHLPKKEYDDDAVRREVQIQLQEFLLSAMTMASKSLEVVNADTVGKTVKQLIMESQEKYMEPFDLDLNEQVRKMYQEWEDETVKVAQLRQTGPAKINEVYNNSKDEYLAQLDGRIGVLQARMMQQQSADHDDSTDDADDHINWEHIKQDYVASLNELYQTQQDLPKVRYNVEKVKRLMDFLEED
chain 2: MSLEPTQTVSGTPPMLHQRTHKQVYPLRMETIPILESDSKATLQSNEPTQKDEEETEYFENKQSVSNLSPDLKFKRHKNKHIQGFPTLGERLDNLQDIKKAKRVENFNSSAPIADDNHSGDATANATANATANATANVNASAMPAPYMPYYYYYHPMNAPTPAMIPYPGSPMHSIMPNSSLQPFYSQPTAAGGPDMTTPQNISSSQQLLPAPQLFPYGSFHQQQLQQPHYIQRTRERKKSIGSQRGRRLSMLASQANGGSTIISPHKDIPEEDFYTVVGNASFGKNLQIRQLFNWCLMRSLHKLELKAKNQEEEGELEHLTKKSKLESTKAETDYVDPKRLAMVIIKEFVDDLKKDHIAIDWEDEEKYEDEDEEKILDNTENYDDTELRQLFQENDDDDDDDDEVDYSEIQRSRRKFSERRKALPKEPKKLLPNSKNVENTKNLSILTSKVNAIKNEVKEWAVTLDTSRPDLEWQELTSFSSQPLEPLSDTEEPDLAIADVETKLETKVDELRYQSHILNSHSLALNEITNSKVNKLNIETMRKISSETDDDHSQVINPQQLLKGLSLSFSKKLDL
chain 3: MSAPTMRSTSILTEHLGYPPISLVDDIINAVNEIMYKCTAAMEKYLLSKSKIGEEDYGEEIKSGVAKLESLLENSVDKNFDKLELYVLRNVLRIPEEYLDANVFRLENQKDLVIVDENELKKSEEKLREKVNDVELAFKKNEMLLKRVTKVKRLLFTIRGFKQKLNELLKCKDDVQLQKILESLKPIDDTMTLLTDSLRKLYVDSESTSSTEEVEALLQRLKTNGKQNNKDFRTRYIDIRTNNVLRKLGLLGDKEDEKQSAKPDARTQAGDIVSIDIEEPQLDLLDDVL
chain 4: MVNSHGIRYIRLKQVFNRALDQSISKLQSWDKVSSCFPQYVNSKQGAINVANCQRQLTEFWTELCQREFKEIMEERNVEQKLNELDELILEAKERYTDRDQDEVNKGPAIDELSSKELVECHLYSQRMHAIHEIDERLAKVNEMNDQLAQELKDLETQVEVEKNEIGKMYDEYLGSHTDQPANVLLVQSLNDMVLELKENY
notes: Nsl1, S. cerevisiae; Dsn1, S. cerevisiae; Mtw1, S. cerevisiae; Nnf1, S. cerevisiae; also called wild-type MIND; pGH46; copies: + + +
B1: binds [3].

B2: 2D-MIND complex (FLAG-Nsl1, S240D, S250D-Dsn1, Mtw1, Nnf1) (complex, S. cerevisiae)
chain 1: MSQGQSKKLDVTVEQLRSIYHQFHDILEEKTDLHLPKKEYDDDAVRREVQIQLQEFLLSAMTMASKSLEVVNADTVGKTVKQLIMESQEKYMEPFDLDLNEQVRKMYQEWEDETVKVAQLRQTGPAKINEVYNNSKDEYLAQLDGRIGVLQARMMQQQSADHDDSTDDADDHINWEHIKQDYVASLNELYQTQQDLPKVRYNVEKVKRLMDFLEED
chain 2: MSLEPTQTVSGTPPMLHQRTHKQVYPLRMETIPILESDSKATLQSNEPTQKDEEETEYFENKQSVSNLSPDLKFKRHKNKHIQGFPTLGERLDNLQDIKKAKRVENFNSSAPIADDNHSGDATANATANATANATANVNASAMPAPYMPYYYYYHPMNAPTPAMIPYPGSPMHSIMPNSSLQPFYSQPTAAGGPDMTTPQNISSSQQLLPAPQLFPYGSFHQQQLQQPHYIQRTRERKKDIGSQRGRRLDMLASQANGGSTIISPHKDIPEEDFYTVVGNASFGKNLQIRQLFNWCLMRSLHKLELKAKNQEEEGELEHLTKKSKLESTKAETDYVDPKRLAMVIIKEFVDDLKKDHIAIDWEDEEKYEDEDEEKILDNTENYDDTELRQLFQENDDDDDDDDEVDYSEIQRSRRKFSERRKALPKEPKKLLPNSKNVENTKNLSILTSKVNAIKNEVKEWAVTLDTSRPDLEWQELTSFSSQPLEPLSDTEEPDLAIADVETKLETKVDELRYQSHILNSHSLALNEITNSKVNKLNIETMRKISSETDDDHSQVINPQQLLKGLSLSFSKKLDL
chain 3: MSAPTMRSTSILTEHLGYPPISLVDDIINAVNEIMYKCTAAMEKYLLSKSKIGEEDYGEEIKSGVAKLESLLENSVDKNFDKLELYVLRNVLRIPEEYLDANVFRLENQKDLVIVDENELKKSEEKLREKVNDVELAFKKNEMLLKRVTKVKRLLFTIRGFKQKLNELLKCKDDVQLQKILESLKPIDDTMTLLTDSLRKLYVDSESTSSTEEVEALLQRLKTNGKQNNKDFRTRYIDIRTNNVLRKLGLLGDKEDEKQSAKPDARTQAGDIVSIDIEEPQLDLLDDVL
chain 4: MVNSHGIRYIRLKQVFNRALDQSISKLQSWDKVSSCFPQYVNSKQGAINVANCQRQLTEFWTELCQREFKEIMEERNVEQKLNELDELILEAKERYTDRDQDEVNKGPAIDELSSKELVECHLYSQRMHAIHEIDERLAKVNEMNDQLAQELKDLETQVEVEKNEIGKMYDEYLGSHTDQPANVLLVQSLNDMVLELKENY
notes: Nsl1, S. cerevisiae; Dsn1, S. cerevisiae, with two phosphomimetic substitutions; Mtw1, S. cerevisiae; Nnf1, S. cerevisiae; also called phosphomimetic MIND; pGH62; copies: + + +
B2: binds [4].
